One series deals with hMSCs. The series can be described thus: Cell proliferation (CCK-8). Type of series: cell-based, human. The following applies: for cell proliferation: 3 or 5 days of culture. As for the experimental part:
Cell proliferation. Five groups of samples were added to an untreated 96-well plate for the cell proliferation experiment. For the JBNT group, 3.75 μL of 1 mg mL^−1 JBNTs was added to 596.25 μL distilled water to obtain a 600 μL JBNT solution. The concentration of the solution was 6.25 μg mL^−1. For the TGF-β1 group, 7.5 μL of 10 μg mL^−1 TGF-β1 was dispersed in 592.5 μL distilled water to obtain a 0.125 μg mL^−1 test solution. For the matrilin-3 group, 30 μL of 10 μg mL^−1 matrilin-3 was dispersed in 570 μL distilled water to obtain a 0.5 μg mL^−1 test solution. For the J/T/M NM group, 7.5 μL of 10 μg mL^−1 TGF-β1 was mixed with 30 μL of 10 μg mL^−1 matrilin-3 and pipetted several times. Then, 3.75 μL of 1 mg mL^−1 JBNTs was added to the solution and pipetted. The J/T/M NM solution was diluted with 558.75 μL distilled water. The final concentrations of JBNT, TGF-β1, and matrilin-3 samples were 6.25 μg mL^−1, 0.125 μg mL^−1, and 0.5 μg mL^−1, respectively. As a control group, 600 μL distilled water was used. Each sample group was divided into 6 wells, with each well receiving a 100 μL sample. The three plates were placed into a −80° C. freezer for one hour and then freeze-dried with a lyophilized instrument.
hMSCs were seeded onto these plates. Each well received 100 μL cell suspension containing 5,000 cells. Three plates were incubated at 37° C. for 1 day, 3 days, or 5 days (5% CO2). After incubation, 10 μL CCK-8 solution was added to each well with cells. Then, each plate was incubated at 37° C. for another 2 h. The absorption values of the plates were measured with multi-mode microplate readers at 450 nm. A series of a known number of hMSCs were seeded onto a 96-well plate. After incubating for 4 h, the absorption values of the cells were measured with the CCK-8 assay. A standard curve was generated according to the absorption values and the numbers of hMSCs. Cell proliferation was calculated with the absorption standard curve.

For series [1] the following is noted: free TGF-β1; cited from earlier work.
The nature of a further series: Zeta-potential test. It is filed as physicochemical. The note with it: dispersed in H2O. The method, then:
Zeta-potential test. Three groups of samples were prepared. For the matrilin-3 group, 160 μL of 10 μg mL^−1 matrilin-3 was dispersed in 640 μL H2O to obtain an 800 μL test solution. For the mixed matrilin-3/TGF-β1 group, 160 μL of 10 μg mL^−1 matrilin-3 was mixed with 40 μL of 10 μg mL^−1 TGF-β1 and pipetted several times. The mixture was then dispersed in 600 μL H2O to obtain an 800 μL test solution. For the J/T/M NM group, 160 μL of 10 μg mL^−1 matrilin-3 was mixed with 40 μL of 10 μg mL^−1 TGF-β1 and pipetted several times. Then, 20 μL of 1 mg mL^−1 JBNTs was added to the solution and pipetted several times. Finally, the J/T/M NM solution was dispersed in 580 μL H2O to obtain an 800 μL test solution. The zeta-potential values of the three groups of samples were tested with a Zetasizer Nano ZS.

The values below come from patent publication US20230372536A1, “NANOMATERIAL AND METHODS OF USE THEREOF” (UNIVERSITY OF CONNECTICUT, priority 2020, published 2023).

Turning to “TGF-β1: Recombinant human TGF-β1 (CHO derived, PeproTech), chondrogenic growth factor”, the cell proliferation entry in the series with hMSCs is “more obvious effects related to the promotion of cell proliferation”. Further, in the series on hMSCs (one day of culture), the “cell number (proliferation)” value was “significantly higher cell numbers”. The plasma half-life in series [1] was below 1.67 h.

B1: matrilin-3: Recombinant human matrilin-3 protein (R&D Systems), cartilage-specific ECM protein (protein, UniProt O15232 29-486, looked up)
Matrilin-3: DPVARPGFRRLETRGPGGSPGRRPSPAAPDGAPASGTSEPGRARGAGVCKSRPLDLVFIIDSSRSVRPLEFTKVKTFVSRIIDTLDIGPADTRVAVVNYASTVKIEFQLQAYTDKQSLKQAVGRITPLSTGTMSGLAIQTAMDEAFTVEAGAREPSSNIPKVAIIVTDGRPQDQVNEVAARAQASGIELYAVGVDRADMASLKMMASEPLEEHVFYVETYGVIEKLSSRFQETFCALDPCVLGTHQCQHVCISDGEGKHHCECSQGYTLNADKKTCSALDRCALNTHGCEHICVNDRSGSYHCECYEGYTLNEDRKTCSAQDKCALGTHGCQHICVNDRTGSHHCECYEGYTLNADKKTCSVRDKCALGSHGCQHICVSDGAASYHCDCYPGYTLNEDKKTCSATEEARRLVSTEDACGCEATLAFQDKVSSYLQRLNTKLDDILEKLKINEYGQIHR
As for B1, the cell proliferation entry in the series on hMSCs is reported as “moderately increase cell proliferation”. The zeta-potential entry in “Zeta-potential test” is on record as “approximately −15 mV”.
